± gives the uncertainty stated by the source.

The record followed here is the Human Domainome abundance scans (Beltran et al. 2025).

First the molecules themselves.
B1: Androgen receptor, residues 557 to 632; numbered along this chain, P10275 (parent)
chain: QKTCLICGDEASGCHYGALTCGSCKVFFKRAAEGKQKYLCASRNDCTIDKFRRKNCPSCRLRKCYEAGMTLGARKL

The variants in the data set derive from B1. The data set is described as follows: abundance fitness (aPCA) (normalised: wild type 0, dead -1); higher = more abundant; growth selection in yeast, the domain comes from the species named. To be noted: Homo sapiens.
With QKTCLICGDEASGCHYGALTCGSCKVFFKRAAEGKQKYLCASRNDCTIDKFRRKNCPSCRLRKCYEAGMTLGGRKL [A73G], the abundance fitness was -0.06 ± 0.06.
The result for QKTCLICGDEASGCHYGALTCGSCKVFFKRAAEGKQKYLCASRNDCTIDKFRRKNCPSCRLRKCYEAGMTLGKRKL [A73K] reads -0.2 ± 0.12; that for QKTCLICGDEASGCHYGALTCGSCKVFFKRAAEGKQKYLCASRNDCTIDKFRRKNCPSCRLRKCYEAGMTLGTRKL [A73T], -0.205 ± 0.27.
The result for QKTCLICGDEASGCHYGALTCGSCKVFFKRAAEGKQKYLCASRNDCTIDKFRRKNCPSCRLRKCYEAGMTLGSRKL [A73S] reads 0 ± 0.084.
The result for QKTCLICGDEASGCHYGALTCGSCKVFFKRAAEGKQKVLCASRNDCTIDKFRRKNCPSCRLRKCYEAGMTLGARKL [Y38V] reads -0.092 ± 0.063.
As to QKTCLICGDEASGCHWGALTCGSCKVFFKRAAEGKQKYLCASRNDCTIDKFRRKNCPSCRLRKCYEAGMTLGARKL [Y16W], the abundance fitness is -0.122 ± 0.034.
The result for QKTCLICGDEASGCHVGALTCGSCKVFFKRAAEGKQKYLCASRNDCTIDKFRRKNCPSCRLRKCYEAGMTLGARKL [Y16V] reads -0.609 ± 0.044.
For the variant QKTCLICGDEASGCHDGALTCGSCKVFFKRAAEGKQKYLCASRNDCTIDKFRRKNCPSCRLRKCYEAGMTLGARKL [Y16D], the abundance fitness is -0.355 ± 0.097.
The result for QKTCLICGDEASGCHKGALTCGSCKVFFKRAAEGKQKYLCASRNDCTIDKFRRKNCPSCRLRKCYEAGMTLGARKL [Y16K] reads -0.473 ± 0.08; that for QKTCLICGDEASGCHYGALTCGSCKVFFHRAAEGKQKYLCASRNDCTIDKFRRKNCPSCRLRKCYEAGMTLGARKL [K29H], -0.024 ± 0.1; that for QKTCLICGDEASGCHYGALTCGSCKVFFQRAAEGKQKYLCASRNDCTIDKFRRKNCPSCRLRKCYEAGMTLGARKL [K29Q], -0.169 ± 0.11.
To QKTCLICGDEASGCHYGALTCGSCKVFFGRAAEGKQKYLCASRNDCTIDKFRRKNCPSCRLRKCYEAGMTLGARKL [K29G] belongs -0.039 ± 0.068; to QKTCLICGDEASGCIYGALTCGSCKVFFKRAAEGKQKYLCASRNDCTIDKFRRKNCPSCRLRKCYEAGMTLGARKL [H15I], -0.063 ± 0.2; to QKTCLICGDEASGCHYGALTCGSCKVFFKRAAEGKQKYLCASRNDCTIDKFRRKNCPVCRLRKCYEAGMTLGARKL [S58V], -0.16 ± 0.085.
For QKTCLICGDEASGCHYGALTCGSCKVFFKRAAEGKQKYLCASRNDCTIDKFRRKNCPWCRLRKCYEAGMTLGARKL [S58W], the abundance fitness was -0.458 ± 0.16.
To QKTCLICGDEASGCHYGALTDGSCKVFFKRAAEGKQKYLCASRNDCTIDKFRRKNCPSCRLRKCYEAGMTLGARKL [C21D] belongs -1.23 ± 0.32; to QKTCLICGDEASGCHYGALTPGSCKVFFKRAAEGKQKYLCASRNDCTIDKFRRKNCPSCRLRKCYEAGMTLGARKL [C21P], -1.21 ± 0.21.
QKTCLICGDEASGCHYGALTCGSCKVFFKRAAEGKQKYLCASRNDCTIDKFRRKNCPSCRLRKCYEAGMTAGARKL [L71A]: the abundance fitness is -0.142 ± 0.095.
The result for QKTCLICGDEASGCHYGALTCGSCKVFFKRAAEGKQKYLCASRNDCTIDKFRRKNCPSCRLRKCYEAGMTDGARKL [L71D] reads -0.185 ± 0.15; that for QKTCLICGDEASGCHYGALTCGSCKWFFKRAAEGKQKYLCASRNDCTIDKFRRKNCPSCRLRKCYEAGMTLGARKL [V26W], -0.181 ± 0.037; that for QKTCLICGDEASGCHYGALTCGSCKPFFKRAAEGKQKYLCASRNDCTIDKFRRKNCPSCRLRKCYEAGMTLGARKL [V26P], -0.772 ± 0.13.
With QKTCLICGDEASGCHYGALTCGSCKQFFKRAAEGKQKYLCASRNDCTIDKFRRKNCPSCRLRKCYEAGMTLGARKL [V26Q], the abundance fitness stood at 0.007 ± 0.05.
The result for QKTCLICGDEASGCHYGALTCGSCKVFFKRAAEGKQKYLCASRNDCTIDKFRRKNCPSCRLRKCYEAGMTLGAIKL [R74I] reads -0.317 ± 0.13; that for QKTCLICGDEASGCHYGALTCGSCKVFFKRAAEGKQKYLCASRNDCTIDKFRRKNCPSCRLRKCYEAGMTLGAWKL [R74W], -0.19 ± 0.081.
For QKTCLICGDEASGCHYGALTCGSCKVFFKRAAEGKQKYLCASRNDCTIDKFRRKNCPSCRLRKCYEAGMTLAARKL [G72A], the abundance fitness was -0.011 ± 0.075.
To QKTCLICGDEASGCHYGALTCGSCKVFFKRAAEGKQKYLCASRNVCTIDKFRRKNCPSCRLRKCYEAGMTLGARKL [D45V] belongs -0.12 ± 0.062.
To QKTCLICGDEASGCHYGALTCGSCKVCFKRAAEGKQKYLCASRNDCTIDKFRRKNCPSCRLRKCYEAGMTLGARKL [F27C] belongs -0.833 ± 0.092; to QKTCLICGDEASGCHYGALTCGSCKVFFKRAAEGKQKYLCASRNDCHIDKFRRKNCPSCRLRKCYEAGMTLGARKL [T47H], -0.026 ± 0.035.
The result for QKTCLICGDEASGCHYGALTCGSCKVFFKRAAEGKQKYLCASRNDCEIDKFRRKNCPSCRLRKCYEAGMTLGARKL [T47E] reads -0.059 ± 0.041; that for QKTCLICGDEASGCHYGALTCGSCKVFFKRAAEGKQKYLCASRNDCIIDKFRRKNCPSCRLRKCYEAGMTLGARKL [T47I], -0.03 ± 0.058; that for QKTCLICGDEASGCHYGALTCGSCKVFFKRAAEGKQKYLCASRNDCYIDKFRRKNCPSCRLRKCYEAGMTLGARKL [T47Y], -0.071 ± 0.037.
Consider QKTCLICGDEASGCHYGALTCKSCKVFFKRAAEGKQKYLCASRNDCTIDKFRRKNCPSCRLRKCYEAGMTLGARKL [G22K], for which the abundance fitness was -0.114 ± 0.051.
To QKTCGICGDEASGCHYGALTCGSCKVFFKRAAEGKQKYLCASRNDCTIDKFRRKNCPSCRLRKCYEAGMTLGARKL [L5G] belongs -0.189 ± 0.041.
The result for QKTCLICGDEASGCHYGALTCGSCKVFFKRAAEGKEKYLCASRNDCTIDKFRRKNCPSCRLRKCYEAGMTLGARKL [Q36E] reads 0.031 ± 0.063.
To QKTCLICGDEASGCHYGALTCGSCKVFFKRAAEGKQKYLCASRNDCTIDKFIRKNCPSCRLRKCYEAGMTLGARKL [R52I] belongs -0.042 ± 0.067; to QKTCLICGDEASGCHYGALTCGSCKVFFKWAAEGKQKYLCASRNDCTIDKFRRKNCPSCRLRKCYEAGMTLGARKL [R30W], -0.114 ± 0.17.
